Source: US20170101470A1 (PROTHENA BIOSCIENCES, published 2017)
Numbering of substitutions follows the chain as printed.

Columns and labels:
[1] = target: T1, human MCAM domain 1 hFc construct (human, UniProt P43121 19-129); test: ForteBio Octet Red, MCAMhFc domains on anti-human IgG Fc sensors
T1 construct: One of the 'various MCAMhFc domains' loaded on the ForteBio sensors; also called MCAMhFc domain 1
T1 sequence: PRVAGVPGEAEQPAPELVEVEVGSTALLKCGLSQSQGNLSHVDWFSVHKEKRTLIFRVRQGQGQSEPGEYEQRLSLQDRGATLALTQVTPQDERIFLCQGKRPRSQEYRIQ
From the text: The following protocol was used: ForteBio anti-human IgG Fc biosensors were used to immobilize various MCAMhFc domains including full length MCAMhFc protein on to biosensor surface. […] After loading these samples into a black 96 well plate, the Octet Red was programmed as follows: 60 seconds for baseline #1; 180 seconds for loading various domains; 60 seconds for baseline #2; 180 seconds for association of antibody to domain; and 240 seconds for dissociation of antibody from domain.
Reagents and Supplies Used: [0358] 1. MCAMhFc final concentration @ 5 ug/ml [0359] […] 3. ForteBio anti-human IgG Fc Capture (AHC) biosensors for kinetics experiments, cat#18-5060 [0361] 4. Block 96 well plate from Greiner Bio-one, cat#655209 [0362] 5. ForteBio Octet Red machine [0363] 6. Fresh tissue culture medium, DMEM with 20% FCS, was used as buffer for dilution

[2] = target: T2, human MCAM I207A mutant clone on BHK-S cells (human) (UniProt P43121); test: shotgun mutagenesis, immunodetection on BHK-S cells, 0.25 ug/mL, background-subtracted and normalised to WT, triplicate
T2 sequence: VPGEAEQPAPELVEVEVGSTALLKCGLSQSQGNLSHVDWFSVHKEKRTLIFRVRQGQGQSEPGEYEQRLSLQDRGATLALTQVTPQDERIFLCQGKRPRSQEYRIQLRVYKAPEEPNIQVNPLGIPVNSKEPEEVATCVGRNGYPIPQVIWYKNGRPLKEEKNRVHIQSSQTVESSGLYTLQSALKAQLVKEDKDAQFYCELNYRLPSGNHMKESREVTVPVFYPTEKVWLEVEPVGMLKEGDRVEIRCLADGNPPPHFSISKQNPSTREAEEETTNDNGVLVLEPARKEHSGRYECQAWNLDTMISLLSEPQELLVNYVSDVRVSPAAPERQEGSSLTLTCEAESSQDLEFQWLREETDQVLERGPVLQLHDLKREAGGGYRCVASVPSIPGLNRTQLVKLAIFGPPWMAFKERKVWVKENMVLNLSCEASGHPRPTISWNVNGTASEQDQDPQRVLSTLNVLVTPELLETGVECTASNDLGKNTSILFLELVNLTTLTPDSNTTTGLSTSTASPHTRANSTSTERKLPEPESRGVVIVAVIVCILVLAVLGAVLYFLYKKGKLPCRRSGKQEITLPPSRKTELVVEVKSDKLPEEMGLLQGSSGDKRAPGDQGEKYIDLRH

[3] = target: T3, human MCAM S206A mutant clone on BHK-S cells (human) (UniProt P43121); test: as above
T3 sequence: T2 sequence with S183A, A184I

[4] = target: T4, human MCAM Y167A mutant clone on BHK-S cells (human) (UniProt P43121); test: as above
T4 sequence: T2 sequence with Y144A, A184I

- binding result [1]: no binding (tested: 5 ug/ml)
B1: rat anti-human MCAM monoclonal antibody clone 2120.4.19 (antibody, V domains shown)
VH: QVQLKESGPGLVQPSQTLSLTCTVSGFSLTSNGVSWVRQPPGKGLEWIAAISSGGTTYYNSAFKSRLSISRNTSKSQVLLKMNSLQTEDTAMYFCARRYGYGWYFDFWGPGTMVTVSS
VL: DIRMTQSPSLLSASVGDRVTLNCKASQNIYNSLAWYQQKLGEGPKVLIPNANSLQTGIPSRFSGSGSGTDFTLTISSLQPEDFATYFCQQFYSGYTFGAGTKLELK
notes: also called m2120
- mean reactivity (% of wild type MCAM) [2]: 23.6 % WT
- mean reactivity (% of wild type MCAM) [3]: 17.9 % WT
- mean reactivity (% of wild type MCAM) [4]: 14.3 % WT
